Substitutions are numbered along the chain they refer to. In names and notes the source's numbering stands.
Experiments:
[1] = β1-4-GlcAT activity comparison of His6-Δ80PmHS2 and its D222N and D500N mutants; type: biochemical
Experimental: Reactions were stopped by heating reaction mixtures at 70° C. for 10 min, followed by incubation on ice for 30 min and centrifugation at 11,337 g for 15 min. Supernatants were analyzed similarly to that described above for the coupled-enzyme reverse glycosylation assay.

[2] = α1-4-GlcNAcT activity comparison of His6-Δ80PmHS2 and its D222N and D500N mutants; type: biochemical
Experimental: Reactions were stopped by heating reaction mixture at 70° C. for 10 min, followed by incubation on ice for 30 min and centrifugation at 11,337 g for 15 min. Supernatants were analyzed similarly to that described above for […].

[3] = Protein expression and purification; parameters: species or system E. coli BL21 (DE3); settings: per L culture
Experimental: Protein expression and purification. The plasmid-bearing E. coli BL21(DE3) cells were cultured in 1 L of LB-rich media (10 g/L tryptone, 5 g/L yeast extract and 10 g/L NaCl) supplemented with ampicillin (100 μg/mL). Expression of the target protein was achieved by inducing the E. coli culture with 0.1 mM of isopropyl-1-thio-β-D-galactopyranoside (IPTG) when OD600 nm reached 0.8-1.0, followed by incubating at 20° C. for 20 h with shaking at 250 rpm in a C25KC incubator shaker (New Brunswick Scientific, Edison, N.J.). Histidine-tagged target proteins were purified from cell lysate. To obtain the cell lysate, cell pellet harvested by centrifugation at 2,795 g for 50 min was resuspended (25 mL/L cell culture) in lysis buffer (Tris-HCl, 100 mM, pH 8.0 with 0.1% Triton X-100). Sonication protocol was 2 s (sonication)/3 s (rest) for a total of 6 min on ice. Lysed cells were centrifuged at 5,000 g for 50 min and the supernatant (lysate) was collected. Purification of histidine-tagged proteins from the lysate was achieved using a Ni′-resin column. The column was pre-equilibrated with 10 column volumes of binding buffer (5 mM imidazole, 0.5 M NaCl, 50 mM Tris-HCl, pH 7.5). The lysate was then loaded, and the column was washed with 10 column volumes of binding buffer and 10 column volumes of washing buffer (16 mM imidazole, 0.5 M NaCl, 50 mM Tris-HCl, pH 7.5). The target protein was eluted with Tris-HCl buffer (50 mM, pH 7.5) containing imidazole (200 mM) and NaCl (0.5 M). The fractions containing the purified enzymes were collected, and stored at 4° C.

[4] = Reverse glycosylation assay mimicking synthetic conditions; type: biochemical; settings: 30 mM UDP, conditions mimicking synthetic reactions
Experimental: Reactions were stopped by heating reaction mixtures at 70° C. for 10 min, followed by incubation on ice for 30 min and centrifugation at 11,337 g for 15 min. Supernatants were analyzed similarly to that described above for time-course reverse glycosylation assays.

[5] = α1-4GlcNAc-transferase activity of designed mutants; type: biochemical
[6] = Relative activity comparison with acceptor GlcNAcαProNHFmoc and UDP-GlcA; type: biochemical; settings: enzyme 1.5 mg/mL; percentage conversion, 30 min, HPLC
Experimental: (§1) Reactions were stopped by heating reaction mixtures at 70° C. for 10 min, followed by incubation on ice for 30 min and centrifugation at 11,337 g for 15 min.

[7] = Effect of UDP concentration on reverse glycosylation activity; type: biochemical; settings: O6 1 mM, enzyme 15 μM
Experimental: Reactions were stopped by heating reaction mixtures at 70° C. for 10 min followed by incubation on ice for 30 min, and centrifugation at 11,337 g for 15 min. Supernatants were analyzed using an Infinity 1290 II HPLC equipped with 1260 Infinity II Diode Array Detector WR (monitored at 254 nm, Agilent Technologies, CA). An AdvanceBio Glycan Mapping column (1.8 μm particle, 2.1×150 mm, Agilent Technologies, CA) was used with a gradient (13 min) of 0.5 mL/min for 90% to 70% acetonitrile and a solution of water with 0.1% TFA for analysis.

[8] = Isoelectric point (pI); type: physicochemical
[9] = Behaviour during dialysis; type: physicochemical
[10] = Relative activity comparison with acceptor GlcAβProNHFmoc (O1) and UDP-GlcNAc; type: biochemical; settings: for GlcNAcα1-4GlcAβProNHFmoc (%): percentage conversion, 30 min, HPLC
Experimental: as §1

B1: D500N (protein)
chain: MGSSHHHHHHSFEKIYTYNQALEAKLEKDKQTTSITDLYNEVAKSDLGLVKETNSANPLVSIIMTSHNTAQFIEASINSLLLQTYKNIEIIIVDDDSSDNTFEIASRIANTTSKVRVFRLNSNLGTYFAKNTGILKSKGDIIFFQDSDDVCHHERIERCVNILLANKETIAVRCAYSRLAPETQHIIKVNNMDYRLGFITLGMHRKVFQEIGFFNCTTKGSDDEFFHRIAKYYGKEKIKNLLLPLYYNTMRENSLFTDMVEWIDNHNIIQKMSDTRQHYATLFQAMHNETASHDFKNLFQFPRIYDALPVPQEMSKLSNPKIPVYINICSIPSRIAQLQRIIGILKNQCDHFHIYLDGYVEIPDFIKNLGNKATVVHCKDKDNSIRDNGKFILLEELIEKNQDGYYITCDDDIIYPSDYINTMIKKLNEYDDKAVIGLHGILFPSRMTKYFSADRLVYSFYKPLEKDKAVNVLGTGTVSFRVSLFNQFSLSDFTHSGMANIYFSLLCKKNNILQICISRPANWLTEDNRDSETLYHQYRDNDEQQTQLIMENGPWGYSSIYPLVKNHPKFTDLIPCLPFYFL
β1-4-GlcAT activity relative to His6-Δ80PmHS2 [1]: retained | decrease of α1-4-GlcNAcT activity relative to His6-Δ80PmHS2 [2]: 548 fold | expression level [3]: 60 to 70 mg/L | reverse glycosylation oligosaccharide products [4]: no reverse glycosylation oligosaccharide products were observed

B2: T475A (protein)
chain: B1 chain with T475A, N500D
α1-4GlcNAc-transferase activity [5]: retained

B3: T477A (protein)
chain: B1 chain with T477A, N500D
α1-4GlcNAc-transferase activity [5]: retained

B4: His6-PmHS2: N-terminal His6-tagged wild-type Pasteurella multocida heparosan synthase 2 (SEQ ID NO:6) (protein)
chain: MGSSHHHHHHSSGLVPRGSHMKGKKEMTQKQMTKNPPQHEKENELNTFQNKIDSLKTTLNKDIISQQTLLAKQDSKHPLSESLENENKLLLKQLQLVLQEFEKIYTYNQALEAKLEKDKQTTSITDLYNEVAKSDLGLVKETNSANPLVSIIMTSHNTAQFIEASINSLLLQTYKNIEIIIVDDDSSDNTFEIASRIANTTSKVRVFRLNSNLGTYFAKNTGILKSKGDIIFFQDSDDVCHHERIERCVNILLANKETIAVRCAYSRLAPETQHIIKVNNMDYRLGFITLGMHRKVFQEIGFFNCTTKGSDDEFFHRIAKYYGKEKIKNLLLPLYYNTMRENSLFTDMVEWIDNHNIIQKMSDTRQHYATLFQAMHNETASHDFKNLFQFPRIYDALPVPQEMSKLSNPKIPVYINICSIPSRIAQLQRIIGILKNQCDHFHIYLDGYVEIPDFIKNLGNKATVVHCKDKDNSIRDNGKFILLEELIEKNQDGYYITCDDDIIYPSDYINTMIKKLNEYDDKAVIGLHGILFPSRMTKYFSADRLVYSFYKPLEKDKAVNVLGTGTVSFRVSLFNQFSLSDFTHSGMADIYFSLLCKKNNILQICISRPANWLTEDNRDSETLYHQYRDNDEQQTQLIMENGPWGYSSIYPLVKNHPKFTDLIPCLPFYFL
modifications: N-terminal His6 tag
GlcAβ1-4GlcNAcαProNHFmoc (%) [6]: 10.3 ± 0.3% | O6 (%) ([7]; UDP 0 (nM)): 100% | O1 (%) ([7]; UDP 1 (nM)): 3.3% | O2 (%) ([7]; UDP 1 (nM)): 2.7% | O3 (%) ([7]; UDP 1 (nM)): 1.4% | O4 (%) ([7]; UDP 1 (nM)): 9.6% | O5 (%) ([7]; UDP 1 (nM)): 3.0% | O6 (%) ([7]; UDP 1 (nM)): 64.2% | O8 (%) ([7]; UDP 1 (nM)): 13.5% | O10 (%) ([7]; UDP 1 (nM)): 1.9% | O1 (%) ([7]; UDP 5 (nM)): 3.9% | O2 (%) ([7]; UDP 5 (nM)): 5.5% | O3 (%) ([7]; UDP 5 (nM)): 1.1% | O4 (%) ([7]; UDP 5 (nM)): 8.8% | O5 (%) ([7]; UDP 5 (nM)): 4.8% | O6 (%) ([7]; UDP 5 (nM)): 52.3% | O7 (%) ([7]; UDP 5 (nM)): 0.4% | O8 (%) ([7]; UDP 5 (nM)): 16.0% | O10 (%) ([7]; UDP 5 (nM)): 5.7% | O12 (%) ([7]; UDP 5 (nM)): 0.7% | O1 (%) ([7]; UDP 10 (nM)): 3.1% | O2 (%) ([7]; UDP 10 (nM)): 9.0% | O3 (%) ([7]; UDP 10 (nM)): 0.6% | O4 (%) ([7]; UDP 10 (nM)): 17.7% | O5 (%) ([7]; UDP 10 (nM)): 9.1% | O6 (%) ([7]; UDP 10 (nM)): 36.2% | O7 (%) ([7]; UDP 10 (nM)): 1.1% | O8 (%) ([7]; UDP 10 (nM)): 16.3% | O9 (%) ([7]; UDP 10 (nM)): 0.4% | O10 (%) ([7]; UDP 10 (nM)): 4.6% | O12 (%) ([7]; UDP 10 (nM)): 1.3% | pI [8]: 6.83 | behaviour during dialysis [9]: precipitated easily during dialysis | expression level [3]: 17 to 20 mg/L | efficiency of GlcAβProNHFmoc (O1) over GlcNAcαProNHFmoc as substrate in disaccharide production [10]: 157 fold | GlcNAcα1-4GlcAβProNHFmoc (%) ([10]; enzyme 0.06 mg/mL): 64.5 ± 1.0% | GlcNAcα1-4GlcAβProNHFmoc (%) ([10]; enzyme 1.5 mg/mL): 100%

Reference: patent US11441131B2, “Heparosan synthases and use thereof for saccharide synthesis” (The Regents of the University of California, priority 2019, dated 2022)
